# Where a chain is given by its changes, count along the chain named. Names and notes keep the numbering of the source.
# T1: soluble heterodimeric hCD3ε/δ.mFc protein (human)
# T1 construct: also called soluble human CD3; soluble heterodimeric CD3 protein
# T1 chain 1: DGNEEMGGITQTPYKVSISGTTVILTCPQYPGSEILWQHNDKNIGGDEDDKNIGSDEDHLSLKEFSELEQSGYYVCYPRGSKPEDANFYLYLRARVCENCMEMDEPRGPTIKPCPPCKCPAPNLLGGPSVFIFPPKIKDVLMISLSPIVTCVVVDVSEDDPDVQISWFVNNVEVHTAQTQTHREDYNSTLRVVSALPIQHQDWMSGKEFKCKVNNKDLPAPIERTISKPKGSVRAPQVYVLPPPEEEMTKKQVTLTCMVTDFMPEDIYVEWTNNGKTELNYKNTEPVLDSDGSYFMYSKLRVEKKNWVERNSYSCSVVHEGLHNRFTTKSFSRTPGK
# T1 chain 2: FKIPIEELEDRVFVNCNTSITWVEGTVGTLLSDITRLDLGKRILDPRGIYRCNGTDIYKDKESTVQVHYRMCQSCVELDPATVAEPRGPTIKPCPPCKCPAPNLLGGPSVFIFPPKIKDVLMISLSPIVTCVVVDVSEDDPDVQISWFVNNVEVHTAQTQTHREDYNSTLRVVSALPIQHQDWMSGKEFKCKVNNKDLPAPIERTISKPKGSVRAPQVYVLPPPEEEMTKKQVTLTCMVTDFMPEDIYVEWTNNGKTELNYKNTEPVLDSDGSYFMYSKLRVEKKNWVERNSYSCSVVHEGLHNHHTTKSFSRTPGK
# B1: BSPSMA/CD3-004 (bispecific antibody, IgG4, V domains shown)
# VH 1: QVQLVESGGGVVQPGRSLRLSCAASGFTFSSYGMHWVRQAPGKGLEWVAVISYAGNNKYYADSVKGRFTVSRDNSKKTLYLQMNSLRSEDTAVYYCAKDSYYDFLTDPDVLDIWGQGTMVTVSS
# VH 2: EVQLVESGGGLVQPGRSLRLSCAASGFTFDDYSMHWVRQAPGKGLEWVSGISWNSGSIGYADSVKGRFTISRDNAKNSLYLQMNSLRAEDTALYYCAKDGSGYGKFYYYGMDVWGQGTTVTVSS
# VL: DIQMTQSPSSLSASVGDSVTITCRASQSINNYLNWYQQKPGKAPKLLIYTASSLLSGVPSRFSGSGSGTDFTLTISGLHPEDFATYFCQQSFSTPPITFGQGTRLDIK
# notes: modified (chimeric) IgG4 Fc domain; also called PSMA-VH-11810 x CD3-VH-G5
# B2: BSPSMA/CD3-200 (bispecific antibody, IgG4, V domains shown)
# VH 1: B1 VH 1
# VH 2: B1 VH 2 with S33A, K105Y
# VL: B1 VL
# notes: modified (chimeric) IgG4 Fc domain; also called PSMA-VH-11810 x CD3-VH-G2
# B3: BSPSMA/CD3-800 (bispecific antibody, IgG4, V domains shown)
# VH 1: B1 VH 1
# VH 2: B1 VH 2 with D99Y, Y108H, M111L
# VL: B1 VL
# notes: modified (chimeric) IgG4 Fc domain; also called PSMA-VH-11810 x CD3-VH-G8
# B4: BSPSMA/CD3-1300 (bispecific antibody, IgG4, V domains shown)
# VH 1: B1 VH 1
# VH 2: B1 VH 2 with D99Y, M111L
# VL: B1 VL
# notes: modified (chimeric) IgG4 Fc domain; also called PSMA-VH-11810 x CD3-VH-G13
# B5: BSPSMA/CD3-300 (bispecific antibody, IgG4, V domains shown)
# VH 1: B1 VH 1
# VH 2: B1 VH 2 with K105Y
# VL: B1 VL
# notes: modified (chimeric) IgG4 Fc domain; also called PSMA-VH-11810 x CD3-VH-G3
# B6: BSPSMA/CD3-1100 (bispecific antibody, IgG4, V domains shown)
# VH 1: B1 VH 1
# VH 2: B1 VH 2 with I58K, D99Y, Y108H
# VL: B1 VL
# notes: modified (chimeric) IgG4 Fc domain; also called PSMA-VH-11810 x CD3-VH-G11
# B7: BSPSMA/CD3-1000 (bispecific antibody, IgG4, V domains shown)
# VH 1: B1 VH 1
# VH 2: B1 VH 2 with I58K, D99Y, M111L
# VL: B1 VL
# notes: modified (chimeric) IgG4 Fc domain; also called PSMA-VH-11810 x CD3-VH-G10
# B8: BSPSMA/CD3-003 (bispecific antibody, IgG4, V domains shown)
# VH 1: B1 VH 1
# VH 2: B1 VH 2 with I58K, D99Y, Y108H, M111L
# VL: B1 VL
# notes: modified (chimeric) IgG4 Fc domain; also called PSMA-VH-11810 x CD3-VH-G
# B9: BSPSMA/CD3-005 (bispecific antibody, IgG4, V domains shown)
# VH 1: B1 VH 1
# VH 2: B1 VH 2 with D99Y
# VL: B1 VL
# notes: modified (chimeric) IgG4 Fc domain; also called PSMA-VH-11810 x CD3-VH-G20
# B10: BSPSMA/CD3-1800 (bispecific antibody, IgG4, V domains shown)
# VH 1: B1 VH 1
# VH 2: B1 VH 2 with M111L
# VL: B1 VL
# notes: modified (chimeric) IgG4 Fc domain; also called PSMA-VH-11810 x CD3-VH-G18
# B11: BSPSMA/CD3-1400 (bispecific antibody, IgG4, V domains shown)
# VH 1: B1 VH 1
# VH 2: B1 VH 2 with D99Y, Y108H
# VL: B1 VL
# notes: modified (chimeric) IgG4 Fc domain; also called PSMA-VH-11810 x CD3-VH-G14
# B12: BSPSMA/CD3-400 (bispecific antibody, IgG4, V domains shown)
# VH 1: B1 VH 1
# VH 2: B1 VH 2 with S33A
# VL: B1 VL
# notes: modified (chimeric) IgG4 Fc domain; also called PSMA-VH-11810 x CD3-VH-G4
# B13: BSPSMA/CD3-1700 (bispecific antibody, IgG4, V domains shown)
# VH 1: B1 VH 1
# VH 2: B1 VH 2 with I58K, D99Y
# VL: B1 VL
# notes: modified (chimeric) IgG4 Fc domain; also called PSMA-VH-11810 x CD3-VH-G17
# B14: H1M11900N (antibody, mouse IgG1, V domains shown)
# VH: EVQLVESGGALVQTGGSLRLSCVASGFTFSNYWMSWVRQSPGKGLQWVASIKKDGSDEDYVDSVKGRFTISRDNAENSLYLQMTSLRIEDTAVYYCARFISAVGVDWGQGALVTVSS
# VL: B1 VL
# notes: human variable / mouse constant region (H1M: mouse IgG1 Fc)
# Biological target: T2, human PSMA on PSMA-expressing cells (human, UniProt Q04609 1-750)
# T2 construct: Cell line is named under assay or readout in each row; also called B16F10.9/hPSMA; B16F10.9/PSMA
# Experiment: FACS on B16F10.9/PSMA cells
# Description: (§1) Briefly, 2×10⁵ cells/well of human CD3-expressing Jurkat, cynomolgus T, or human PSMA-specific expressing cells were incubated with a serial dilution of bispecific antibodies for 30 min at 4° C. After incubation, cells were washed and a goat F(ab′)₂ anti-human Fcγ PE labeled secondary (Jackson Immunolabs) was added to the cells for an additional 30 min. Next, cells were washed, re-suspended in cold PBS+1% BSA and analyzed via flow cytometry on a BD FACS Canto II.
# (§2) For FACS analysis, cells were gated by forward scatter height vs. forward scatter area for single events selection, followed by side and forward scatters. The EC₅₀ for cell binding titration was determined using Prism software. Values were calculated using 4-parameter non-linear regression analysis.
# T2 sequence (Q04609 whole entry): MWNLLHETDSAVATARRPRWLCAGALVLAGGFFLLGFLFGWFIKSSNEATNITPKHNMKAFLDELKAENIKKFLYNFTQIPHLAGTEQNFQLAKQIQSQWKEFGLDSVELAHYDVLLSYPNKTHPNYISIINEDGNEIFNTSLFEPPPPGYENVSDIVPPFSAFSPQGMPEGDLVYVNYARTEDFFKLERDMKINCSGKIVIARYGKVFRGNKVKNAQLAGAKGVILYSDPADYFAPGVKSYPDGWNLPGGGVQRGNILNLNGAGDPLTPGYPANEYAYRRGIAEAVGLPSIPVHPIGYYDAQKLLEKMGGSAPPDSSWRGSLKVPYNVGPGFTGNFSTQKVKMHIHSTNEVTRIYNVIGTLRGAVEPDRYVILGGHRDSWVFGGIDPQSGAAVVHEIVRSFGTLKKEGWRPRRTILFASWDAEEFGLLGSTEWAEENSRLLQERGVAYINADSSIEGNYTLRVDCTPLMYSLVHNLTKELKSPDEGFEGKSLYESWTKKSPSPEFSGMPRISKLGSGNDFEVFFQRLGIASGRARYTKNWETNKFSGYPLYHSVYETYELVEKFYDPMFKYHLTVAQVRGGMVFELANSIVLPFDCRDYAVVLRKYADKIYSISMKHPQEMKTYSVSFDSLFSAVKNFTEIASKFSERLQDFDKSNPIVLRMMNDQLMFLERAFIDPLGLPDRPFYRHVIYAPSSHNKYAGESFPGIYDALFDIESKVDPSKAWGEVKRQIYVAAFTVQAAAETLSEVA
row,EC50,Binder
1,1.31 nM,B1
2,1.88 nM,B2
3,1.31 nM,B3
4,1.25 nM,B4
5,1.9 nM,B5
6,1.03 nM,B6
7,1.19 nM,B7
8,2.26 nM,B8
9,2.09 nM,B9
10,2.16 nM,B10
11,1.3 nM,B11
12,1.72 nM,B12
13,1.34 nM,B13

# Biological target: T3, human CD3 on CD3-expressing cells (Jurkat, human T cells) (human, UniProt P07766 23-207; P04234 22-171)
# T3 construct: On cells CD3 stands within the T cell receptor complex (also gamma and zeta chains); also called human CD3 expressing Jurkat cells
# Experiment: FACS on Jurkat cells
# Description: as §1, §2
EC50,binding result,Binder
~1000 nM,–,B1
–,no binding,B2
19.3 nM,–,B3
102 nM,–,B4
–,no binding,B5
18.3 nM,–,B6
277 nM,–,B7
16.5 nM,–,B8
210 nM,–,B9
126 nM,–,B10
31.9 nM,–,B11
–,no binding,B12
200 nM,–,B13

# Biological target: T4, cynomolgus CD3 on cynomolgus T cells (cynomolgus, UniProt Q95LI5 22-198; Q95LI8 22-171)
# T4 construct: whole, on cells; also called Cyno T-cells; monkey T-cells
# Experiment: FACS on cynomolgus T cells
# Description: as §1, §2
# T4 sequence (Q95LI5 22-198, form in doubt, chain 1 of 2): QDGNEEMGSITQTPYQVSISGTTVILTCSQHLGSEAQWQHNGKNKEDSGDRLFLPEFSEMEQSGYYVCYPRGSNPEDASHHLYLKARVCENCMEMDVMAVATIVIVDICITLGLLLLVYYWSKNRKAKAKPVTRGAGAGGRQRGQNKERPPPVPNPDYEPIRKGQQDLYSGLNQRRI
# T4 sequence (Q95LI8 22-171, form in doubt, chain 2 of 2): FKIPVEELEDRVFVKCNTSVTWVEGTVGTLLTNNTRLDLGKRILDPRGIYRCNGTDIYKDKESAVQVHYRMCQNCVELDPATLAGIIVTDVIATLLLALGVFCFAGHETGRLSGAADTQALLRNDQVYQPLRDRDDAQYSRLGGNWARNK
row,EC50,Binder
1,19.6 nM,B3
2,2170 nM,B4
3,890 nM,B6
4,14.2 nM,B8
5,6140 nM,B9
6,170 nM,B11
7,3350 nM,B13

# Biological target: T5, human PSMA expressed with an N-terminal hexahistidine tag (6h.hPSMA, R&D) (human, UniProt Q04609 44-750)
# T5 construct: Bought soluble protein; also called soluble human PSMA; human PSMA protein
# Experiment: SPR Biacore T-200, 37 C, antibody-capture (anti-mouse Fc), 6h.hPSMA as analyte
# Description: Briefly, a CM5 Biacore™ sensor surface was derivatized via amine coupling with a monoclonal mouse anti-human Fc antibody (GE, # BR-1008-39) or monoclonal goat anti-mouse Fc antibody (GE, # BR-1008-38) to capture purified anti-PSMA antibodies. Binding studies were performed in HBSP++ buffer composed of 0.01M HEPES, 0.15M NaCl, 2 mM Ca²⁺, 2 mM Mg²⁺, 0.05% v/v Surfactant P20, pH7.4. Varying concentrations of human PSMA expressed with an N-terminal hexahistidine tag (6h.hPSMA, R&D) prepared in HBSP++ running buffer (ranging from 50 to 0.78 nM, 4-fold dilutions) were injected over the anti-PSMA antibody captured surface at a flow rate of 30 μL/minute. Antibody-reagent association was monitored for 2 minutes while dissociation in HBSP++ running buffer was monitored for 8 minutes.
# (§3) Kinetic association (kₐ) and dissociation (kd) rate constants were determined by fitting the real-time sensorgrams to a 1:1 binding model using Scrubber 2.0c curve fitting software. Binding dissociation equilibrium constants (KD) and dissociative half-lives (t½) were calculated from the kinetic rate constants as: KD (M)=kd/kₐ; and t_{1/2} (min)=(ln 2/(60*kd).
# T5 sequence (Q04609 other isoform, or with tags, fused parts or gaps limits assumed): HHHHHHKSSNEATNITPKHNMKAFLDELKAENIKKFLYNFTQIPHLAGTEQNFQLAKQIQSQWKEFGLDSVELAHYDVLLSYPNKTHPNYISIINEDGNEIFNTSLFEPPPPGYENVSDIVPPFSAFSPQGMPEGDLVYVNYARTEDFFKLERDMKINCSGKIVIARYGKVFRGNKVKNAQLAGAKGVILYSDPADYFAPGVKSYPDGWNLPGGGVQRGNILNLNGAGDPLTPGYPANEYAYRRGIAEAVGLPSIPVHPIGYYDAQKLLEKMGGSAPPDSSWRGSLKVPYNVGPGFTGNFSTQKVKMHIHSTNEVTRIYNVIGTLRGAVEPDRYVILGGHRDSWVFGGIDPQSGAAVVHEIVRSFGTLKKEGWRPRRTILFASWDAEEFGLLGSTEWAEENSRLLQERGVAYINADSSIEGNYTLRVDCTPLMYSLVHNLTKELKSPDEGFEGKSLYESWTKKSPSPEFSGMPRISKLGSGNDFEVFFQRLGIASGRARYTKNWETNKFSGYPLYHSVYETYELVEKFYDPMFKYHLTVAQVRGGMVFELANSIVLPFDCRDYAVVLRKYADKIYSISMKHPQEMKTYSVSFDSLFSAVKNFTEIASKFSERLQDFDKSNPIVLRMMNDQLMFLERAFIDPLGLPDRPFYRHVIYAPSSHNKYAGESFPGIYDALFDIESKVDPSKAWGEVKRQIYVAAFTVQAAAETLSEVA
Kd,koff,kon,t1/2,Binder
25.8 nM,0.00406 s⁻¹,157000 M⁻¹ s⁻¹,2.8 min,B14

# Biological target: T1, soluble heterodimeric hCD3ε/δ.mFc …
# Experiment: SPR MASS-1, 37 C, antigen-capture (hCD3ε/δ.mFc captured), antibody injected
# Description: (§4) Measurements were conducted on a Sierra Sensors MASS-1 instrument.
# (§5) In the antigen-capture format, the MASS-1 high-density amine sensor surface was derivatized with a goat anti-mouse IgG2a polyclonal antibody (Southern Biotech). Soluble heterodimeric CD3 protein was captured and the respective antibodies were injected over the captured antigen.
# as §3, with “by processing and” for “by”, “data” for “real-time sensorgrams”, “MASS-1 AnalyserR2” for “Scrubber 2.0c”, “(t_{1/2})” for “(t½)”
Kd,T½,koff,kon,Binder
19.4 nM,10 min,0.00115 s⁻¹,59500 M⁻¹ s⁻¹,B3
122 nM,4.7 min,0.00248 s⁻¹,20300 M⁻¹ s⁻¹,B4
11.1 nM,11.3 min,0.00102 s⁻¹,92100 M⁻¹ s⁻¹,B6
185 nM,1.8 min,0.00637 s⁻¹,34400 M⁻¹ s⁻¹,B7
334 nM,2 min,0.00577 s⁻¹,17300 M⁻¹ s⁻¹,B9
53.3 nM,3.5 min,0.00331 s⁻¹,62100 M⁻¹ s⁻¹,B11
65.2 nM,3.8 min,0.00307 s⁻¹,47000 M⁻¹ s⁻¹,B13

# Biological target: T3, human CD3 on CD3-expressing cells …
# Experiment: cell-based or functional assay
# Target sequence in this assay (P07766 23-207 limits assumed, chain 1 of 2): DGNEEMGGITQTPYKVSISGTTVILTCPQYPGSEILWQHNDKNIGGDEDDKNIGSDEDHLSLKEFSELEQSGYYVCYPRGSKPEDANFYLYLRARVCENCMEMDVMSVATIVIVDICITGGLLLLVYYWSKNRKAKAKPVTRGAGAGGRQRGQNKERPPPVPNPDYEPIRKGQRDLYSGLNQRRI
# Target sequence in this assay (P04234 22-171 limits assumed, chain 2 of 2): as the sequence (Q95LI8 22-171, form in doubt, chain 2 of 2) above, with V5I, K15N, V20I, T32S, N33D, N34I, A64T, N74S, L83V, R141H counted along it
row,T cell activation EC50,Binder
1,0.0134 nM,B1
2,0.00176 nM,B3
3,0.00231 nM,B4
4,0.0185 nM,B5
5,0.00111 nM,B6
6,0.00128 nM,B7
7,0.00123 nM,B8
8,0.00611 nM,B9
9,0.00389 nM,B13

# Biological target: T2, human PSMA on PSMA-expressing cells
# Experiment: cell-based or functional assay
22RV1 Cell depletion EC50,C4-2 Cell depletion EC50,TrampC2.PSMA Cell depletion EC50,Binder
0.00631 nM,0.0215 nM,0.0115 nM,B1
–,–,0.00927 nM,B3
–,0.00874 nM,–,B4
–,–,0.00386 nM,B6
–,–,0.00597 nM,B7
–,0.0103 nM,0.00643 nM,B8
0.00832 nM,0.0139 nM,–,B9
0.00207 nM,0.00737 nM,–,B13

# Biological target: T1, soluble heterodimeric hCD3ε/δ.mFc …
# Experiment: SPR MASS-1, 37 C, antigen-capture format
# Description: as §4, §5
# as §3, with “by processing and” for “by”, “data” for “real-time sensorgrams”, “MASS-1 AnalyserR2” for “Scrubber 2.0c”, “(t_{1/2})” for “(t½)”
row,binding result,Binder
1,no binding,B1
2,no binding,B2
3,no binding,B5
4,no binding,B10
5,no binding,B12

# — patent US20190127480A1 (Regeneron, published 2019)
